Reference: the RNAGym collection of RNA variant scans (doi:10.1073/pnas.2313332121)
Variants at the floor of the assay were thinned out.

B1: TPR 5TU (parent)
chain: GGAUCUUCUCGAUCUAACAAAAAAGACAAAUCUGCCACAAAGCUUGAGAGCAUCUUCGGAUGCAGAGGCGGCAGCCUUCGGUGGCGCGAUAGCGCCAACGUUCUCAACUAUGACACGCAAAACGCGUGCUCCGUUGAAUGGAGUUUAUCAUG

Variants of: B1
Experiment: polymerase ribozyme fitness, log enrichment relative to wild type (log ratio); higher = more active; in vitro selection for triplet polymerase activity
Summary of the method: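 Mutant libraries were PCR-built and transcribed for each subunit of a heterodimeric triplet polymerase ribozyme and selected for one round in triplicate at −7 °C, frozen, before gel excision of extended constructs and streptavidin-bead capture. Input and output libraries were Illumina-sequenced, keeping genotypes with ≥10 input reads and ≥1 read per output. Fitness is a logarithmic ratio of genotype to wild-type enrichment, in base 2, using inverse-variance-weighted replicate averages.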

| Variant | polymerase ribozyme fitness (log ratio) |
| --- | --- |
| A19U A39G C85U U134G | ≤ -4.2 |
| A19C G88A C95A C99U | ≤ -4.2 |
| A19U A22U A47C G80A G86A C87A C95U U104G A120U | ≤ -4.2 |
| A19C G86A | -0.455 |
| C18U A20C G34U C76A C79A G88A | ≤ -4.2 |
| A19C A30U G50A A73C G80U G86A C118A U145G | ≤ -4.2 |
| A20C G94U G152C | -2.76 |
| A19U A26C G46U C93A C95G C108A U151G | ≤ -4.2 |
| A19U G71U G83C U146G | ≤ -4.2 |
| A19U G46A G58C A97U U134A | ≤ -4.2 |
| A19U G34A A47U C76A C116U | ≤ -4.2 |
| A20G G46A U55G G70A C76U G84A C96U C103G C114U G152U | ≤ -4.2 |
| A19U U55A A60G G94U G143U | -3.55 |
| A19U A23U U90G C105A | ≤ -4.2 |
| A20G G25C G58C A106U | -3.93 |
| A20C G83C C96G | -1.83 |
| A20G U55G C116U A121C | -0.705 |
| A19U G83A | -0.555 |
| A19U G83U | -0.798 |
| A20U A41G A49U A52C G86C C96G | ≤ -4.2 |
| C18U C57A A115C G143U U148A | ≤ -4.2 |

| Variant | polymerase ribozyme fitness (log ratio) |
| --- | --- |
| C18U U31G A37C C54U A91C U134C U146C | ≤ -4.2 |
| C18U G25C C43G C99A | ≤ -4.2 |
| A19G A40U G62U A121U G141U | -1.46 |
| C18U A47C C79G G88A A91C A121U U148G | ≤ -4.2 |
| A20G A22C | -0.665 |
| C18U C35U G58U G80C C85U | ≤ -4.2 |
| A20C U55A A89G G94C C95A C108G C123G | ≤ -4.2 |
| A20C A41C U55C C93G C99U U102G | ≤ -4.2 |
| A20C A28U C93U C129U G143A | ≤ -4.2 |
| A20U A113C G133C | ≤ -4.2 |
| C18U G58C C85U C87U | -1.92 |
| A19U A26C C38U A89G A98U A107C | ≤ -4.2 |
| A19U C54A G70A U82A U134G U139A | ≤ -4.2 |
| A20G G136A | 0.27 |
| A19U A28G G50A G68A G94U | ≤ -4.2 |
| A19U C87U | -0.845 |
| C18U A30C C32U A39U A49C U53G C93G C96U U127G U139G G140U A147C U151A | ≤ -4.2 |
| A19G C51U A52C A60U G65A G84U C85A C87U A98C A138G | ≤ -4.2 |
| A20G C51U G58A C85U A106U | -2.76 |
| A19U C43U A73U C79U A106U A107C | ≤ -4.2 |
| A20G A21C G92A C108G | ≤ -4.2 |

| Variant | polymerase ribozyme fitness (log ratio) |
| --- | --- |
| C18U A21U G42A G58C C95U C116U U145C | ≤ -4.2 |
| A20U A21U A37C C96A A121G | -1.8 |
| A19U C57G C96G C116G | -0.687 |
| A20C A28U A49C U61A G92A A113G C149G | ≤ -4.2 |
| A19C C36U G59U A60G C93U U104G | -3.23 |
| A19C G88C | -3.96 |
| A19G A41C G59A G62A A73U C118G A150U | ≤ -4.2 |
| A20G A22C G25C C57A G92A C99U C108A | ≤ -4.2 |
| A19U G143U | -2.25 |
| A19C U61C G141C U144C C149A | ≤ -4.2 |
| A19U G86U | -1.75 |
| C18U C87U G94C C123A G141A | ≤ -4.2 |
| A20G C57U C99A C108U | ≤ -4.2 |
| A19U U44A U53A A73U C85U G136A | ≤ -4.2 |
| A19G G83C C87U U101G | ≤ -4.2 |
| A19G A52U U53A U82C C87G | ≤ -4.2 |
| C18U U56A U90G C99U A120C C132U U134C | ≤ -4.2 |
| A19U U53A C85A | -3.78 |
| A19C G126U U145A | -0.56 |
| A19G A23U A30C G48U U56C A60U C87U | ≤ -4.2 |
| A19G A29G G92A C116G | -3.8 |

| Variant | polymerase ribozyme fitness (log ratio) |
| --- | --- |
| A19U C54G C79A U82C G84A A89C G92C U144C | ≤ -4.2 |
| A19C U56A U104A A119U | -0.197 |
| C18U A19G G94A | -2.01 |
| A19U A91C C129A | ≤ -4.2 |
| A19G C27A C57A G92U A97G G133A U134G | ≤ -4.2 |
| C18G U55A A98G A106G G112U A120U | -3.87 |
| A19C A21C C76U C87A A110G A120G | ≤ -4.2 |
| A19C C51A G86C | -3.75 |
| C18U U44A G50A A52U G74A A91U C105G A106G C129G | ≤ -4.2 |
| A19C C27A C125U U148G | ≤ -4.2 |
| A19G A26U U31C G92A C96G C103U | ≤ -4.2 |
| A20G U53A | -1.01 |
| A20G U45C U56G C57U C75A C87G G136C | ≤ -4.2 |
| A19U A24U A30U U55A C93G C103G A106C C132G U146C | ≤ -4.2 |
| C18U U53A C85A C96A A137G | ≤ -4.2 |
| A19U G50U | -0.0269 |
| A19U G50A | -1.63 |
| A19U C85U | -0.763 |
| A20U A47U G70C G80C C85G C93A C108U A122G U144G | ≤ -4.2 |
| A19G A91C C116A G141A U145G | ≤ -4.2 |
| A19G A41C | -1.52 |
